According to the Immune Epitope Database (IEDB):

Columns and labels:
HLA-A*24:03 = assay: IEDB peptide-MHC binding, purified MHC/direct/fluorescence; filed as Kd, often an IC50 or EC50 that approximates it; ≥ and ≤ were set here for values at or beyond the usual limits of such assays; details: source organism: Giardia lamblia ATCC 50803
HLA-C*12:03 = assay: as above; details: source organism: Giardia lamblia ATCC 50803
HLA-A*32:07 = assay: IEDB peptide-MHC binding, purified MHC/competitive/fluorescence; filed as Kd, often an IC50 or EC50 that approximates it; ≥ and ≤ were set here for values at or beyond the usual limits of such assays; details: source organism: Giardia lamblia ATCC 50803
HLA-A*32:15 = assay: as above; details: source organism: Giardia lamblia ATCC 50803
HLA-A*68:23 = assay: as above; details: source organism: Giardia lamblia ATCC 50803
HLA-B*15:42 = assay: as above; details: source organism: Giardia lamblia ATCC 50803
HLA-B*45:06 = assay: as above; details: source organism: Giardia lamblia ATCC 50803
HLA-B*46:01 = assay: as above; details: source organism: Giardia lamblia ATCC 50803
HLA-B*83:01 = assay: as above; details: source organism: Giardia lamblia ATCC 50803
HLA-C*04:01 = assay: as above; details: source organism: Giardia lamblia ATCC 50803
HLA-C*06:02 = assay: as above; details: source organism: Giardia lamblia ATCC 50803
HLA-C*14:02 = assay: as above; details: source organism: Giardia lamblia ATCC 50803
HLA-A*01:01 = assay: IEDB peptide-MHC binding, purified MHC/direct/fluorescence; filed as Kd, often an IC50 or EC50 that approximates it; ≥ and ≤ were set here for values at or beyond the usual limits of such assays; details: source organism: Lyssavirus rabies
HLA-A*02:01 = assay: as above; details: source organism: Lyssavirus rabies
HLA-A*03:01 = assay: as above; details: source organism: Lyssavirus rabies
HLA-A*26:03 = assay: as above; details: source organism: Lyssavirus rabies
HLA-A*68:02 = assay: as above; details: source organism: Lyssavirus rabies
HLA-A*69:01 = assay: as above; details: source organism: Lyssavirus rabies
HLA-B*07:02 = assay: as above; details: source organism: Lyssavirus rabies
HLA-B*08:01 = assay: as above; details: source organism: Lyssavirus rabies
HLA-B*15:01 = assay: as above; details: source organism: Lyssavirus rabies
HLA-B*18:01 = assay: as above; details: source organism: Lyssavirus rabies
HLA-B*27:05 = assay: as above; details: source organism: Lyssavirus rabies
HLA-B*48:01 = assay: as above; details: source organism: Lyssavirus rabies
HLA-B*57:01 = assay: as above; details: source organism: Lyssavirus rabies
HLA-B*58:01 = assay: as above; details: source organism: Lyssavirus rabies
HLA-B*73:01 = assay: as above; details: source organism: Lyssavirus rabies
HLA-A*02:06 = assay: IEDB peptide-MHC binding, purified MHC/competitive/fluorescence; filed as Kd, often an IC50 or EC50 that approximates it; ≥ and ≤ were set here for values at or beyond the usual limits of such assays; details: source organism: Lyssavirus rabies
HLA-A*11:01 = assay: as above; details: source organism: Lyssavirus rabies
HLA-A*30:01 = assay: as above; details: source organism: Lyssavirus rabies
HLA-A*31:01 = assay: as above; details: source organism: Lyssavirus rabies
HLA-B*15:09 = assay: as above; details: source organism: Lyssavirus rabies
HLA-B*15:17 = assay: as above; details: source organism: Lyssavirus rabies

Question: With YTFFFTQYF as the sequence, how does the Kd (HLA-A*24:03) read?
Answer: 28.5 nM

Question: What about the Kd (HLA-C*12:03) of the same sequence?
Answer: 44 nM

Question: And the Kd (HLA-A*32:07)?
Answer: 34.5 nM

Question: And the Kd (HLA-A*32:15)?
Answer: 91.1 nM

Question: What about the Kd (HLA-A*68:23) of the same sequence?
Answer: ≤ 0.1 nM

Question: And the Kd (HLA-B*15:42)?
Answer: ≥ 5000 nM

Question: And the Kd (HLA-B*45:06)?
Answer: ≥ 5000 nM

Question: What about the Kd (HLA-B*46:01) of the same sequence?
Answer: 342 nM

Question: And the Kd (HLA-B*83:01)?
Answer: ≥ 5000 nM

Question: And the Kd (HLA-C*04:01)?
Answer: ≥ 5000 nM

Question: What about the Kd (HLA-C*06:02) of the same sequence?
Answer: 1390 nM

Question: And the Kd (HLA-C*14:02)?
Answer: 79.4 nM

Question: How did the Kd (HLA-A*01:01) turn out when RQMKSGGRF was run?
Answer: ≥ 20000 nM

Question: And the Kd (HLA-A*02:01)?
Answer: ≥ 20000 nM

Question: What about the Kd (HLA-A*03:01) of the same sequence?
Answer: ≥ 20000 nM

Question: What about the Kd (HLA-A*26:03) of the same sequence?
Answer: ≥ 20000 nM

Question: And the Kd (HLA-A*68:02)?
Answer: ≥ 20000 nM

Question: What about the Kd (HLA-A*69:01) of the same sequence?
Answer: ≥ 20000 nM

Question: And the Kd (HLA-B*07:02)?
Answer: ≥ 20000 nM

Question: And the Kd (HLA-B*08:01)?
Answer: ≥ 20000 nM

Question: What about the Kd (HLA-B*15:01) of the same sequence?
Answer: 119 nM

Question: What about the Kd (HLA-B*18:01) of the same sequence?
Answer: ≥ 20000 nM

Question: And the Kd (HLA-B*27:05)?
Answer: 275 nM

Question: What about the Kd (HLA-B*48:01) of the same sequence?
Answer: 1620 nM

Question: What about the Kd (HLA-B*57:01) of the same sequence?
Answer: ≥ 20000 nM

Question: And the Kd (HLA-B*58:01)?
Answer: ≥ 20000 nM

Question: And the Kd (HLA-B*73:01)?
Answer: ≥ 20000 nM

Question: And the Kd (HLA-A*02:06)?
Answer: 476 nM

Question: And the Kd (HLA-A*11:01)?
Answer: ≥ 20000 nM

Question: And the Kd (HLA-A*30:01)?
Answer: ≥ 20000 nM

Question: What about the Kd (HLA-A*31:01) of the same sequence?
Answer: ≥ 20000 nM

Question: And the Kd (HLA-B*15:09)?
Answer: ≥ 20000 nM

Question: And the Kd (HLA-B*15:17)?
Answer: 631 nM
